Measurements: the supplement of paper PMC9112550, “Optimization of the antimicrobial peptide Bac7 by deep mutational scanning” (BMC Biology, 2022)

System: Escherichia coli TOP10
Experiment: shrunken log2 fold change of peptide-encoding DNA abundance (4.5 h post-induction vs induction); higher = less antimicrobial activity (less host growth inhibition)
Conditions: time post-induction: 4.5 h; library: site-saturation at positions 5, 18, 19, 20
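Further: peptides expressed intracellularly from a pBAD plasmid library in pooled LB shake-flask culture, induced with 0.3% L-arabinose, DNA abundance read by NGS, three biological replicates, DESeq2 with apeglm shrinkage.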

Sequence	shrunken log2 fold change
RRIRQRPPRLPRPRPRPVCYPRP	-0.636
RRIRQRPPRLPRPRPRPVDDPRP	-0.0578
RRIRQRPPRLPRPRPRPVDKPRP	-0.0881
RRIRQRPPRLPRPRPRPVDPPRP	-0.0233
RRIRQRPPRLPRPRPRPVEYPRP	-0.434
RRIRQRPPRLPRPRPRPVFKPRP	-0.0447
RRIRQRPPRLPRPRPRPVGLPRP	0.35
RRIRQRPPRLPRPRPRPVGRPRP	0.336
RRIRQRPPRLPRPRPRPVLHPRP	-0.149
RRIRQRPPRLPRPRPRPVMNPRP	0.0954
RRIRQRPPRLPRPRPRPVNEPRP	-0.325
RRIRQRPPRLPRPRPRPVPVPRP	-0.228
RRIRQRPPRLPRPRPRPVQWPRP	-0.03
RRIRQRPPRLPRPRPRPVRFPRP	0.728
RRIRQRPPRLPRPRPRPVRTPRP	0.0701
RRIRQRPPRLPRPRPRPVTEPRP	-0.35
RRIRQRPPRLPRPRPRPVTHPRP	4.01
RRIRQRPPRLPRPRPRPVVGPRP	0.101
RRIRQRPPRLPRPRPRPVVRPRP	0.169
RRIRQRPPRLPRPRPRPVYCPRP	-0.155
RRIRQRPPRLPRPRPRPVYSPRP	-0.0563
RRIRQRPPRLPRPRPRPWAAPRP	0.0922
RRIRQRPPRLPRPRPRPWCAPRP	0.0231
RRIRQRPPRLPRPRPRPWFCPRP	-0.282
RRIRQRPPRLPRPRPRPWFQPRP	-0.0867

Sequence	shrunken log2 fold change
RRIRQRPPRLPRPRPRPWHLPRP	-0.0241
RRIRQRPPRLPRPRPRPWIAPRP	-0.161
RRIRQRPPRLPRPRPRPWIGPRP	-0.013
RRIRQRPPRLPRPRPRPWIWPRP	0.231
RRIRQRPPRLPRPRPRPWMEPRP	-3.98e-05
RRIRQRPPRLPRPRPRPWQDPRP	0.07
RRIRQRPPRLPRPRPRPWQGPRP	-0.137
RRIRQRPPRLPRPRPRPWQIPRP	-0.0838
RRIRQRPPRLPRPRPRPWQLPRP	-0.0199
RRIRQRPPRLPRPRPRPWRGPRP	-0.0544
RRIRQRPPRLPRPRPRPWRTPRP	-0.152
RRIRQRPPRLPRPRPRPWSMPRP	-0.0469
RRIRQRPPRLPRPRPRPWSRPRP	0.00812
RRIRQRPPRLPRPRPRPWVQPRP	-0.0131
RRIRQRPPRLPRPRPRPWWTPRP	-0.01
RRIRQRPPRLPRPRPRPWYDPRP	-0.138
RRIRQRPPRLPRPRPRPWYEPRP	0.0185
RRIRQRPPRLPRPRPRPWYSPRP	-0.0193
RRIRQRPPRLPRPRPRPYANPRP	-0.264
RRIRQRPPRLPRPRPRPYCYPRP	-0.198
RRIRQRPPRLPRPRPRPYDTPRP	-0.307
RRIRQRPPRLPRPRPRPYEQPRP	-0.609
RRIRQRPPRLPRPRPRPYEVPRP	-0.31
RRIRQRPPRLPRPRPRPYFTPRP	-0.818
RRIRQRPPRLPRPRPRPYGEPRP	-0.0137

Sequence	shrunken log2 fold change
RRIRQRPPRLPRPRPRPYIPPRP	-0.619
RRIRQRPPRLPRPRPRPYKHPRP	-0.161
RRIRQRPPRLPRPRPRPYKNPRP	-1.02
RRIRQRPPRLPRPRPRPYLKPRP	0.00123
RRIRQRPPRLPRPRPRPYLPPRP	-0.0206
RRIRQRPPRLPRPRPRPYLVPRP	-0.551
RRIRQRPPRLPRPRPRPYPEPRP	-0.0761
RRIRQRPPRLPRPRPRPYPMPRP	0.0253
RRIRQRPPRLPRPRPRPYQSPRP	-0.176
RRIRQRPPRLPRPRPRPYRWPRP	-0.0412
RRIRQRPPRLPRPRPRPYSCPRP	0.0133
RRIRQRPPRLPRPRPRPYSFPRP	-0.141
RRIRQRPPRLPRPRPRPYSLPRP	-0.197
RRIRQRPPRLPRPRPRPYSPPRP	-0.13
RRIRQRPPRLPRPRPRPYVIPRP	0.0316
RRIRQRPPRLPRPRPRPYVTPRP	-0.253
RRIRQRPPRLPRPRPRPYVVPRP	-0.102
RRIRQRPPRLPRPRPRPYWTPRP	-0.496
RRIRRRPPRLPRPRPRPACTPRP	0.181
RRIRRRPPRLPRPRPRPADEPRP	2.06
RRIRRRPPRLPRPRPRPADHPRP	-0.115
RRIRRRPPRLPRPRPRPAEKPRP	0.225
RRIRRRPPRLPRPRPRPAESPRP	0.256
RRIRRRPPRLPRPRPRPAEVPRP	0.219
RRIRRRPPRLPRPRPRPAFHPRP	0.083

Sequence	shrunken log2 fold change
RRIRRRPPRLPRPRPRPAFTPRP	0.118
RRIRRRPPRLPRPRPRPAGMPRP	0.102
RRIRRRPPRLPRPRPRPAGWPRP	0.593
RRIRRRPPRLPRPRPRPAHEPRP	0.598
RRIRRRPPRLPRPRPRPAHWPRP	0.672
RRIRRRPPRLPRPRPRPAKHPRP	0.219
RRIRRRPPRLPRPRPRPAMMPRP	0.163
RRIRRRPPRLPRPRPRPANHPRP	0.097
RRIRRRPPRLPRPRPRPANMPRP	-0.0342
RRIRRRPPRLPRPRPRPAPCPRP	0.884
RRIRRRPPRLPRPRPRPASQPRP	0.0789
RRIRRRPPRLPRPRPRPATSPRP	0.0892
RRIRRRPPRLPRPRPRPAVKPRP	0.0474
RRIRRRPPRLPRPRPRPAWEPRP	0.301
RRIRRRPPRLPRPRPRPAWPPRP	0.446
RRIRRRPPRLPRPRPRPCAEPRP	0.393
RRIRRRPPRLPRPRPRPCAGPRP	0.357
RRIRRRPPRLPRPRPRPCCLPRP	0.0396
RRIRRRPPRLPRPRPRPCDSPRP	-0.396
RRIRRRPPRLPRPRPRPCDYPRP	-0.489
RRIRRRPPRLPRPRPRPCEKPRP	-0.0914
RRIRRRPPRLPRPRPRPCFRPRP	-0.00559
RRIRRRPPRLPRPRPRPCGLPRP	0.15
RRIRRRPPRLPRPRPRPCGQPRP	0.205
RRIRRRPPRLPRPRPRPCHFPRP	-0.181

Sequence	shrunken log2 fold change
RRIRRRPPRLPRPRPRPCHMPRP	-0.237
RRIRRRPPRLPRPRPRPCHQPRP	-0.172
RRIRRRPPRLPRPRPRPCIEPRP	0.131
RRIRRRPPRLPRPRPRPCIKPRP	-0.0974
RRIRRRPPRLPRPRPRPCIQPRP	-0.271
RRIRRRPPRLPRPRPRPCIYPRP	0.0603
RRIRRRPPRLPRPRPRPCKIPRP	0.0604
RRIRRRPPRLPRPRPRPCKRPRP	0.0349
RRIRRRPPRLPRPRPRPCLEPRP	0.11
RRIRRRPPRLPRPRPRPCMMPRP	-0.292
RRIRRRPPRLPRPRPRPCNFPRP	-0.0159
RRIRRRPPRLPRPRPRPCPYPRP	0.0825
RRIRRRPPRLPRPRPRPCRYPRP	-0.0616
RRIRRRPPRLPRPRPRPCSVPRP	0.178
RRIRRRPPRLPRPRPRPCWGPRP	0.0286
RRIRRRPPRLPRPRPRPCYFPRP	-0.0239
RRIRRRPPRLPRPRPRPCYNPRP	-0.41
RRIRRRPPRLPRPRPRPCYYPRP	0.0129
RRIRRRPPRLPRPRPRPDAVPRP	0.462
RRIRRRPPRLPRPRPRPDCYPRP	-0.236
RRIRRRPPRLPRPRPRPDDLPRP	-0.128
RRIRRRPPRLPRPRPRPDEMPRP	0.753
RRIRRRPPRLPRPRPRPDEQPRP	0.237
RRIRRRPPRLPRPRPRPDESPRP	0.037
RRIRRRPPRLPRPRPRPDFDPRP	0.291

Sequence	shrunken log2 fold change
RRIRRRPPRLPRPRPRPDGDPRP	0.485
RRIRRRPPRLPRPRPRPDGSPRP	0.0601
RRIRRRPPRLPRPRPRPDGWPRP	1.45
RRIRRRPPRLPRPRPRPDIFPRP	0.0756
RRIRRRPPRLPRPRPRPDKPPRP	0.583
RRIRRRPPRLPRPRPRPDKWPRP	0.107
RRIRRRPPRLPRPRPRPDMFPRP	0.0219
RRIRRRPPRLPRPRPRPDMHPRP	-0.203
RRIRRRPPRLPRPRPRPDMKPRP	-0.124
RRIRRRPPRLPRPRPRPDNMPRP	-0.259
RRIRRRPPRLPRPRPRPDQPPRP	0.0262
RRIRRRPPRLPRPRPRPDRFPRP	0.394
RRIRRRPPRLPRPRPRPDRLPRP	0.058
RRIRRRPPRLPRPRPRPDSHPRP	-0.00863
RRIRRRPPRLPRPRPRPDVAPRP	0.592
RRIRRRPPRLPRPRPRPDVNPRP	0.0369
RRIRRRPPRLPRPRPRPDVRPRP	0.0483
RRIRRRPPRLPRPRPRPDYCPRP	-0.214
RRIRRRPPRLPRPRPRPEADPRP	0.774
RRIRRRPPRLPRPRPRPECRPRP	0.272
RRIRRRPPRLPRPRPRPECWPRP	0.958
RRIRRRPPRLPRPRPRPECYPRP	0.368
RRIRRRPPRLPRPRPRPEEIPRP	-0.0243
RRIRRRPPRLPRPRPRPEFHPRP	0.0566
RRIRRRPPRLPRPRPRPEGAPRP	1.05
